This is an account of results in patent US20170210805A1 (published 2017).

In experiment [1] the target is water-soluble hFcRn (human) (UniProt P55899). The experiment in a line: SPR (Proteon XPR36), shFcRn immobilized on GLC chip, hIgG1 as analyte, pH 6.0.
The target in experiment [2] is T1, human FcRn (co-crystal with HL161BK Fab) (human, UniProt P55899 24-297; P61769 21-119).
T1 construct: also called hFcRn
The experiment in a line: X-ray co-crystal structure at 2.4 Å.
Excerpt: There are two copies each of hFcRn and HL161BK Fab per asymmetric unit. […] A data set was collected at ESRF beamline ID30A-1.

Chain of water-soluble hFcRn (human) (P55899 24-297 limits assumed, chain 1 of 2): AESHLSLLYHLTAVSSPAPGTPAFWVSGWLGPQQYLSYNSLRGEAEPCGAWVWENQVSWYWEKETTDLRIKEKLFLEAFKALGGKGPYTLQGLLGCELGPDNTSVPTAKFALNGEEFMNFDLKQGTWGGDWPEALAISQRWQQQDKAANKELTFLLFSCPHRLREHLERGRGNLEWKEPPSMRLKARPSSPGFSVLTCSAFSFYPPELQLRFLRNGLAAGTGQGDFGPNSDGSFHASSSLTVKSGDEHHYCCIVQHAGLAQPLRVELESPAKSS
Chain of water-soluble hFcRn (human) (b2m, as listed by the source limits assumed, chain 2 of 2): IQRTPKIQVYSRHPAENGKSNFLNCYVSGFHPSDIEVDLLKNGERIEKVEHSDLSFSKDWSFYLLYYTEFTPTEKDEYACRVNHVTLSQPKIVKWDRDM
T1 sequence (P55899 24-297 limits assumed, chain 1 of 2): as the sequence (P55899 24-297 limits assumed, chain 1 of 2) above
T1 sequence (P61769 21-119 limits assumed, chain 2 of 2): as the sequence (b2m, as listed by the source limits assumed, chain 2 of 2) above

Broadly, the Kd is the concentration at which binding is half-saturated. In general, koff refers to a measure of how fast the partners let go of each other. As usually defined, the kon is the second-order rate constant of association. As for hIgG1 (antibody), in experiment [1], the dissociation constant (Kd) was determined as 1.4 nM, the koff worked out at 0.00046 s⁻¹ and the kon was found to be 320000 M⁻¹ s⁻¹.

B1: HL161BK antibody Fab fragment (Fab, V domains shown)
VH: QLLLQESGPGLVKPSETLSLTCTVSGGSLSSSFSYWVWIRQPPGKGLEWIGTIYYSGNTYYNPSLKSRLTISVDTSKNHFSLKLSSVTAADTAVYYCARRAGILTGYLDSWGQGTLVTVSS
VL: SYVLTQSPSVSVAPGQTARITCGGNNIGSKSVHWYQQKPGQAPVLVVYDDSDRPSGIPERFSASNSGNTATLTISRVEAGDEADYYCQVWDSSSDHVVFGGGTKLTVLGQPKAAPSVTL
notes: HL161BK is HL161B with asparagine (N) at position 83 of the heavy-chain variable framework replaced by lysine (K); It was used as a Fab in the crystal; also called HL161BK Fab
With B1, in experiment [2], the binding result was “binds”.
